# Legend:
# [1] = target: his-maltose binding protein (MBP) (UniProt P0AEX9 27-396 = MBP); test: pull-down on nickel-NTA agarose beads, anti-hRetn Western blot
# Experimental: (§1) Given that there are no publicly available CAP1 deficient mice, a direct protein-protein interaction of hRetn to TLR4 or CAP1 was investigated as an alternative to cell binding assays. A pull-down assay was performed utilizing recombinant hRetn with histidine (his)-tagged human TLR4, his-human CAP1 or his-maltose binding protein (MBP) as a negative control (FIG. 4G). In the pull-down elution, Western blot using anti-his antibody confirmed that his-MBP, his-TLR4 and his-CAP1 are all pulled down by the nickel-NTA agarose beads. In addition, when blotting the elution fraction with anti-hRetn antibody, hRetn was only present in the elution with his-TLR4, not his-CAP1 or his-MBP. To ensure that this interaction was not due to low-level LPS contamination, this pull-down assay was also performed with mammalian cell-derived hRetn. Similar to E. coli-derived hRetn, mammalian-derived hRetn is only detected when pulled down with his-TLR4, not his-CAP1 or his-MBP.
# (§2) Pull-down Assay. […] His-MBP, His-TLR4 and His-CAP1 were detected by anti-His antibody (Abcam), and hRetn was detected by anti-hRetn antibody (donated by Mitchell Lazar) by Western Blot. […]
# [2] = target: T1, his-human CAP1 (cyclic adenylate associated protein 1) (human, UniProt Q01518 1-475, limits assumed); test: as above
# T1 construct: Proposed receptor of hRetn, tested in the pull-down; also called his-CAP1; His-CAP1; not shown: His tag
# Experimental: as §1, §2
# [3] = target: T2, human TLR4 on human PBMC (CD14+CD11b+ monocytes) (human, UniProt O00206 24-839); test: competitive hRetn/LPS binding assay on human PBMC, flow cytometry
# T2 construct: whole, on cells
# Experimental: With reference to FIG. 5J, the functional ability of the hRetn N-peptide to block LPS binding and function was tested. The binding experiments were performed on ice to rule out effects of LPS-induced TLR4 endocytosis, which would have added complexity for interpretation of the data. Pre-incubation of human PBMC with the hRetn N-peptide or full-length hRetn inhibited LPS binding to CD14+CD11 b+ monocytes. […] An additional formulation of human resistin fused to the humanFc Ig fragment was also effective at inhibiting proinflammatory cytokines and promoting IL-10 expression in primary macrophage cultures (FIG. 7C).
# Human PBMCs. Human buffy coat was purchased from Zen-bio. Buffy coat was overlaid on top of Histopaque-1077 and spun at 700g at 25° C. with no brake and PBMCs were recovered from the interphase. PBMCs were plated in 96-well plates and stimulated with mammalian-derived human resistin (1 μg/mL, LifeSpan Biosciences) or hRetn N-peptide (1 μg/mL). After 24 hours, ultrapure LPS (100 ng/mL, Invivogen) was added and supernatants recovered for ELISA at 24 hours. Where indicated, cells were incubated for 4 hours with STAT3 (5, 15-DPP, 50 μM) or TBK1 (BX-795, 1 μM) inhibitors prior to hRetn treatment. For the hRetn competitive binding assay, 1×10^6 cells were incubated with recombinant hRetn (0.5 μg), washed in PBS then incubated with 0.5 μg LPS-biotin (incubations were 30 minutes on ice). […]
# T2 sequence (O00206 24-839): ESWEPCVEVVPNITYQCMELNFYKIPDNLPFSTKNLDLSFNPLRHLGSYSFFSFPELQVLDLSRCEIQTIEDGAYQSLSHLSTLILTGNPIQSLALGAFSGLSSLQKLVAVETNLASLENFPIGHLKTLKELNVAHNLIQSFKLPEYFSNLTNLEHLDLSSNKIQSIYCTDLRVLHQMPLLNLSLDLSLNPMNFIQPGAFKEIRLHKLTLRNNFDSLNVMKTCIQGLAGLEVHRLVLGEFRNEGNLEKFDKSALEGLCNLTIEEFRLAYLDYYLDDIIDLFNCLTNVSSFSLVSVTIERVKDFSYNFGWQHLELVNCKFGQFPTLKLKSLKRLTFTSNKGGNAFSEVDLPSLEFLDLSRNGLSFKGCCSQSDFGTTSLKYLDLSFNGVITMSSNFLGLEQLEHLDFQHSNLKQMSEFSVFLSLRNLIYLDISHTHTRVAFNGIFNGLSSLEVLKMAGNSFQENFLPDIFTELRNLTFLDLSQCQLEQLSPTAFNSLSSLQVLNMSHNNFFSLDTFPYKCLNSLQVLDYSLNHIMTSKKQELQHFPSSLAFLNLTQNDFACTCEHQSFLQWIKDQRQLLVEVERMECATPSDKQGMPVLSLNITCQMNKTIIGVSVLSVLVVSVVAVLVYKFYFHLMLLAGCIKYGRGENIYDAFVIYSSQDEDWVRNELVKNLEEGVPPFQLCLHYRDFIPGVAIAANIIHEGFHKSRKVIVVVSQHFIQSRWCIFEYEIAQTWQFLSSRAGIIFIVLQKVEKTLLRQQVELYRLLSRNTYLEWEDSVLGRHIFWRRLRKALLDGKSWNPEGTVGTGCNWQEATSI
# T1 sequence (Q01518 whole entry): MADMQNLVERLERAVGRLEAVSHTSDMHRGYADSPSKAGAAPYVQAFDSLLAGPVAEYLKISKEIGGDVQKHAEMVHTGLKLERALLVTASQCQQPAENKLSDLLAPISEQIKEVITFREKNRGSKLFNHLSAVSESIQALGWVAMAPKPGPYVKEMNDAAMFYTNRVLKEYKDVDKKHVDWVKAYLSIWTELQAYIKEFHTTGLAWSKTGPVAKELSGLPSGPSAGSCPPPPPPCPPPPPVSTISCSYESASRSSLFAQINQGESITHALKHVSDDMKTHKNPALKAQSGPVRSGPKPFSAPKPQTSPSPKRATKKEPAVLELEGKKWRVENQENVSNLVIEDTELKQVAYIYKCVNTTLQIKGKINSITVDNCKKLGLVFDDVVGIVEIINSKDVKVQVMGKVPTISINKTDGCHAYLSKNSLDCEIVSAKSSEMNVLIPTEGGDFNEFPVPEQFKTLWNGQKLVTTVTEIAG
binding result [1],binding result [2],binding result [3],Binder
no binding,no binding,,"recombinant human resistin (hRetn), E. coli-derived (Peprotech) (ligand, Bought protein (Peprotech), made in bacteria; also called recombinant hResistin; E. coli-derived hRetn) SSKTLCSMEEAINERIQEVAGSLIFRAISSIGLECQSVTSRGDLATCPRGFAVTGCTCGSACGSWDVRAETTCHCQCAGMDWTGARCCRVQP"
,,binds,"mammalian cell-derived human resistin (hRetn), 293T cell-derived (LifeSpan Biosciences) (ligand, Bought protein (LifeSpan Biosciences); also called mammalian-derived hRetn; 293T derived hRetn) KTLCSMEEAINERIQEVAGSLIFRAISSIGLECQSVTSRGDLATCPRGFAVTGCTCGSACGSWDVRAETTCHCQCAGMDWTGARCCRVQP"
